Laboratory results: paper PMC7595577

Target: biotinylated CD16 (UniProt P08637)
Experiment: BLI

B1: QA255.072 IgG (antibody, V domains shown)
VH: QVQLIQSGAEVRKPGSSVKVSCKAVGATFHNYAVSWVRQAPGQGLEWMGGIIPIRGLANQEPRFQGRLTITADESTGAIYMDLSSLRSDDSAVYYCARHYDDTSGFFYGAFDIWGQGTTLIVSS
VL: DIQMTQSPPSLSASVGDRVTISCRASQGIGNSVAWYQQKPGKAPKLLILAASSLRSGVPSRFSGSMSGTDFTLTISGLQPEDVATYYCQKYNSAPWTFGQGTKVEIK
Question: With B1 as the binder, how does the Kd read?
Answer: 4.9 µM
